Laboratory results published in article PMC2794548, “Real-Time Imaging and Quantification of Amyloid-β Peptide Aggregates by Novel Quantum-Dot Nanoprobes” (PLoS ONE, 2009).

How the values were obtained:
[1] = Kinetic analysis of Aβ40 and Aβ42 aggregations by SDS-PAGE; assay type: physicochemical, Human; details: 50 µM peptide in PBS without SDS, 37°C
Method: These Aβ solutions were diluted at 50 µM in PBS with or without 1 mM SDS, and 5 µl of aliquots were incubated for various time periods at 37°C. The samples were mixed with sample buffer (final concentration: 50 mM Tris-HCl (pH 6.8), 2% SDS, 0.1% bromophenol blue, and 10% glycerol) and immediately electrophoresed using 16.5% Tris-Tricine gels or 16% Tris-Glycine gels. These gels were stained with Coomassie brilliant blue.
After the incubation, these samples were electrophoresed using 16.5% Tris-Tricine (a and c) and 16% Tris-Glycine gels (b and d). […] [1] Schagger H (2006) Tricine-SDS-PAGE. Nat Protoc 1: 16–22. Laemmli UK (1970) Cleavage of structural proteins during the assembly of the head of bacteriophage T4. Nature 227: 680–685. (1.27 MB TIF) Click here for additional data file.

[2] = 10–35 µM Aβ42 in phosphate buffer (pH 7.5 or pH 7.4); cited from earlier work
Aβ42 = Aβ42 (Homo sapiens, UniProt P05067); assay: Imaging of fibril formation: coaggregation of QDAβ with intact Aβ42, wide-field fluorescence microscopy; assay type: physicochemical; details: 0.1% QDAβ(6)-containing 50 µM Aβ42, 1 day on ice
Sequence of Aβ42 (P05067 672-713 limits assumed): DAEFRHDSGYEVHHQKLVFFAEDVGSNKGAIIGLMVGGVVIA
Source text: (b) Fluorescence intensities of the aggregates in (a). Fluorescence intensities measured from 20 randomly selected fields (100×100 pixel: 8.6×8.6 μm) containing the aggregates are shown as relative % intensity against QDAβ(6) group. *** denotes P<0.001 for QDAβ (6)- versus QDAβ (1)- or QDAβ (0)-samples and ## denotes 0.001<P<0.01 for QDAβ (1)- versus QDAβ (0) samples. Error bars indicate SD (n = 20). […], spread between glass slides and cover slips, and observed by regular microscopy using a 100x objective lens with QD filter set (left micrograph) and […] (right three micrographs). […] The right three micrographs are magnified and brightened micrographs. The top right micrograph is the boxed area in the left micrograph. […] To remove any aggregates, the mixtures were centrifuged at 10,000×g for 1 min at 4°C. The mixtures (50 μl) were put in microcentrifuge tubes or 96-well glass bottom plates (MatTek). […] Supplementary file pone.0008492.s006.tif: Figure S4 Dose- and time-dependent coaggregation. […] (7.12 MB TIF) Click here for additional data file. Supplementary file pone.0008492.s007.tif: Figure S5 Temperature-dependent Aβ aggregation. […] (1.67 MB TIF) Click here for additional data file.

[3] = 4D imaging of Aβ aggregation by swept-field confocal microscopy; assay type: physicochemical, Human
Method: (a) 4D imaging of Aβ aggregation. […] (b) Time-course of Aβ aggregation. The volumes of Aβ aggregates measured from three 4D experiments (red, blue, and green). The total volume of the observed space is 1.9×10^6 µm^3 (138×138×100 µm).
To remove any aggregates, the mixtures were centrifuged at 10,000×g for 1 min at 4°C. The mixtures (50 µl) were put in microcentrifuge tubes or 96-well glass bottom plates (MatTek). The samples in microcentrifuge tubes were incubated for various time periods at 37°C in an air incubator, and observed by wide-field fluorescence microscopy or electron microscopy. The samples in 96-well glass bottom plates were incubated at 37°C in 5% CO2 in a culture chamber (LiveCell™, Pathology Devices), and directly observed by wide-field fluorescence microscopy or swept-field laser-scanning confocal microscopy [QDAβ: Excitation: 488 nm at 15% power; Emission filter: Chroma Quad Filter (#C68208) for FITC].
QD was excited by an argon laser, and Lysotracker and Mitotracker were excited by an argon/krypton laser.

[4] = 0.1% QDAβ(6)-containing 100 µM Aβ42, 37°C, imaged every 30 min over 20 h, three 4D experiments

Q: With “Aβ40: Human amyloid peptide Aβ40 (Biosource)” as the substance, how does the “oligomer formation after 5 days” value ([1]; SDS-PAGE (Fig. S1c, d)) read?
A: did not form oligomers

Q: With “Aβ42: Human amyloid peptide Aβ42 (Biosource)” as the substance, how does the “lag time of ThT binding” value [2] read?
A: several minutes

Q: What about the “time at which ThT binding reached a plateau” value [2] of the same substance?
A: 1 to 2 h

Q: And the “time to formation of trimeric and tetrameric species from the start of incubation” value ([1]; SDS-PAGE, Coomassie (Fig. S1a))?
A: ≤ 0.3 h

Q: What about the “aggregation after incubation on ice” value (Aβ42) of the same substance?
A: did not observe aggregation

Q: And the “lag time of aggregation” value [3, 4]?
A: approximately 1.5 h

Q: What about the “time at which aggregation reached a plateau” value [3, 4] of the same substance?
A: around 12 h

Q: What about the “density of stacked-Aβ aggregates on the glass bottom in a steady state” value ([3]; estimated from 4D imaging data, 100 µM Aβ42 with 0.1% QDAβ(6)) of the same substance?
A: 32 ± 6 mg/mL
